Data reported in publication PMC6872814, “Functional interactions between nitrite reductase and nitric oxide reductase from Paracoccus denitrificans” (Scientific Reports, 2019).

Assays:
[1] = molecular target: cytochrome c-dependent nitric oxide reductase (cNOR) from Paracoccus denitrificans, NorB and NorC, unlabelled (Paracoccus denitrificans) (UniProt Q51662)
[2] = molecular target: cytochrome c-dependent nitric oxide reductase (cNOR) from Paracoccus denitrificans, NorB and NorC, unlabelled (Paracoccus denitrificans) (UniProt Q51662); remark: listed apart in the source
[3] = molecular target: cytochrome c-dependent nitric oxide reductase (cNOR) from Paracoccus denitrificans, NorB and NorC, unlabelled (Paracoccus denitrificans) (UniProt Q51662); remark: listed apart in the source
[4] = molecular target: cytochrome c-dependent nitric oxide reductase (cNOR) from Paracoccus denitrificans, NorB and NorC, unlabelled (Paracoccus denitrificans) (UniProt Q51662); remark: listed apart in the source

cytochrome c-dependent nitric oxide reductase (cNOR) from Paracoccus denitrificans, NorB and NorC, unlabelled (Paracoccus denitrificans), sequence (Q51662 whole entry, looked up): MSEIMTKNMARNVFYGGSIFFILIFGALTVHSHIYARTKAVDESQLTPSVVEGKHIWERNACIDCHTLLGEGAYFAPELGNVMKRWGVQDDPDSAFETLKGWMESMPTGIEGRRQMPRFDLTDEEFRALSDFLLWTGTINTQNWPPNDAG
horse heart cytochrome c, sequence (P00004 whole entry): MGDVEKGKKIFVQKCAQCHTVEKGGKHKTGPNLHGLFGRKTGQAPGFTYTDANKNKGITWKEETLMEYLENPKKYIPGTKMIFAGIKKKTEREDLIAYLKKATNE
cytochrome cd1 nitrite reductase (cd1NiR) from Paracoccus pantotrophus, labelled with Abberior STAR 635, sequence (P72181 30-596): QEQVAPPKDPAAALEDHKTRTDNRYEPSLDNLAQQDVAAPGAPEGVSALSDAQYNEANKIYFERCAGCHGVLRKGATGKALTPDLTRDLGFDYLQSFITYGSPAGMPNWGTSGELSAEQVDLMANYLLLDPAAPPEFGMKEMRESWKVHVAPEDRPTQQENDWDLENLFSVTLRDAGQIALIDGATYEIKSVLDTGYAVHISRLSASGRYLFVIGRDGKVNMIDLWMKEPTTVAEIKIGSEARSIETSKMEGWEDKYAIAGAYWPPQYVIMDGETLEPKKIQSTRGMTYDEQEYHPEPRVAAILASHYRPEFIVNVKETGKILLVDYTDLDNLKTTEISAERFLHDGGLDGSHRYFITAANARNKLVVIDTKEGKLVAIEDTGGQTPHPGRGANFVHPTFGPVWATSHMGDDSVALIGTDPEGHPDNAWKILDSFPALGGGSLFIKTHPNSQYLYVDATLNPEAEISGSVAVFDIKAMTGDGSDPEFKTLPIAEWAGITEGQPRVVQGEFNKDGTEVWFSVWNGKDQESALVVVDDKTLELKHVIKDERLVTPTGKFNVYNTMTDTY

| relative kmax (kcat of the fit) of NO reduction by liposome-reconstituted cNOR in the presence of ~30 nM cd1NiR, cyt. c titration; control without cd1NiR = 100% [1] | inhibition of the maximum NO-reduction activity (kmax at ~5 µM NO) of 40 nM detergent-solubilized cNOR, cd1NiR 0-200 nM; the inhibition is released at higher cd1NiR [2] | Km for cyt. c of NO reduction by liposome-reconstituted cNOR in the presence of ~30 nM cd1NiR (unchanged against the control) [3] | Km for cyt. c of NO reduction by liposome-reconstituted cNOR, side-by-side control without cd1NiR [3] | Km for cyt. c of NO reduction by cNOR in detergent (0.05% DDM) [4] | Km for cyt. c of NO reduction by liposome-reconstituted cNOR [4] | Substance |
| --- | --- | --- | --- | --- | --- | --- |
| 46% | 50% |  |  |  |  | cytochrome cd1 nitrite reductase (cd1NiR) from Paracoccus pantotrophus, labelled with Abberior STAR 635 (from UniProt P72181 30-596) (enzyme) |
|  |  | 0.15 µM | 0.2 µM | 0.8 µM | 0.8 µM | horse heart cytochrome c (from UniProt P00004 1-105) (natural protein) |
